Patent publication US20220389095A1 (AGENUS, published 2022)

Target: T1, human TIGIT (human, UniProt Q495A1 22-244)
T1 construct: whole, on cells; The assays used cell-surface TIGIT; also called T-cell immunoreceptor with Ig and ITIM domains; VSIG9
T1 sequence (looked up): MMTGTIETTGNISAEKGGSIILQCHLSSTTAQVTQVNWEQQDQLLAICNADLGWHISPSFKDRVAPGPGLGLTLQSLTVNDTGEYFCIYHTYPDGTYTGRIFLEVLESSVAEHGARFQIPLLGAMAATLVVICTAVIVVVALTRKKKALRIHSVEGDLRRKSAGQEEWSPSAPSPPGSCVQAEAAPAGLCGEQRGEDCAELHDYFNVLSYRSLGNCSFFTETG
Experiment: flow cytometry on anti-CD3-activated human PBMC, gated on CD4+ and CD8+ T cells
Protocol: After four days, the sample plates were centrifuged for two minutes at 2000 rpm and then supernatants were discarded. Samples were blocked with FcγR Block prepared in FACs buffer at 5 μL per 100 μL for 10 minutes. Sample plates were then centrifuged for two minutes at 2000 rpm and the supernatant was discarded. The cells were then resuspended in 100 μL of BA159 or a relevant isotype control antibody. To prepare antibodies, each antibody was diluted to 40 μg/mL in buffer for a final volume of 200 μL. Antibodies were then serially diluted 1 to 4 for a total of 12 dilutions ranging from 40 μg/mL to 0.00000954 μg/mL.
Cells were then resuspended in a cocktail of fluorescently labeled antibodies prepared in FACs buffer. 100 μL of antibody was add per well of a round-bottom 96-well plate. The sample plate was incubated for 20 minutes on ice. Cells were then washed by addition of cold sample buffer, centrifuged for two minutes at 2000 rpm, and supernatants were discarded. This wash was repeated once. […]
Antibody binding was measured by flow cytometry using a BD LSR Fortessa Flow Cytometer. […] 100,000 events were recorded for each sample. Samples were analyzed by sequentially gating on the following populations: FSC-A vs SSC-A, FSC-H vs FSC-A, SSC-A vs LIVE/DEAD, and CD4 vs CD8 Mean fluorescence intensity (MFI) was calculated.

- binding result: binds
B1: BA159 (antibody, human IgG1, lambda)
heavy: EVQLVQSGAEVKKPGSSVKVSCKASGYTFASYGISWVRQAPGQGLEWMGGITPFFNRVDVAEKFQGRVTITADKSTSTAYIELSSLRSEDTAVYYCARDLRRGGVGDAFDIWGRGTLVTVSSASTKGPSVFPLAPSSKSTSGGTAALGCLVKDYFPEPVTVSWNSGALTSGVHTFPAVLQSSGLYSLSSVVTVPSSSLGTQTYICNVNHKPSNTKVDKRVEPKSCDKTHTCPPCPAPELLGGPDVFLFPPKPKDTLMISRTPEVTCVVVDVSHEDPEVKFNWYVDGVEVHNAKTKPREEQYNSTYRVVSVLTVLHQDWLNGKEYKCKVSNKALPLPEEKTISKAKGQPREPQVYTLPPSREEMTKNQVSLTCLVKGFYPSDIAVEWESNGQPENNYKTTPPVLDSDGSFFLYSKLTVDKSRWQQGNVFSCSVMHEALHNHYTQKSLSLSPGK
light: QSALTQPRSVSGSPGQSVTISCTGTSSDVGSHNYVSWYQQHPGKAPKLMIYEVSYRPSGVSNRFSGSKSGNTASLTISGLQAEDEADYYCSSYTPSSATVFGAGTKLTVLGQPKAAPSVTLFPPSSEELQANKATLVCLISDFYPGAVTVAWKADSSPVKAGVETTTPSKQSNNKYAASSYLSLTPEQWKSHRSYSCQVTHEGSTVEKTVAPTECS
notes: also called anti-TIGIT antibody BA159
